Reference: publication PMC7251641

Substrate: Nc1ncnc2c1ncn2[C@@H]1O[C@H](COP(=O)(O)OP(=O)(O)OP(=O)(O)O)[C@@H](O)[C@H]1O
Assay: real-time fluorescent phosphate-release ATPase assay
Format: biochemical, Saccharomyces cerevisiae
Conditions: nucleosome-stimulated, 15 nM nucleosomes, 23 °C

B1: SWI/SNF (Saccharomyces cerevisiae S288C) (protein)
chain: MNIPQRQFSNEEVNRCYLRWQHLRNEHGMNAPSVPEFIYLTKVLQFAAKQRQELQMQRQQQGISGSQQNIVPNSSDQAELPNNASSHISASASPHLAPNMQLNGNETFSTSAHQSPIMQTQMPLNSNGGNNMLPQRQSSVGSLNATNFSPTPANNGENAAEKPDNSNHNNLNLNNSELQPQNRSLQEHNIQDSNVMPGSQINSPMPQQAQMQQAQFQAQQAQQAQQAQQAQQAQARLQQGRRLPMTMFTAEQSELLKAQITSLKCLVNRKPIPFEFQAVIQKSINHPPDFKRMLLSLSEFARRRQPTDQNNQSNLNGGNNTQQPGTNSHYNNTNTDNVSGLTRNAPLDSKDENFASVSPAGPSSVHNAKNGTLDKNSQTVSGTPITQTESKKEENETISNVAKTAPNSNKTHTEQNNPPKPQKPVPLNVLQDQYKEGIKVVDIDDPDMMVDSFTMPNISHSNIDYQTLLANSDHAKFTIEPGVLPVGIDTHTATDIYQTLIALNLDTTVNDCLDKLLNDECTESTRENALYDYYALQLLPLQKAVRGHVLQFEWHQNSLLTNTHPNFLSKIRNINVQDALLTNQLYKNHELLKLERKKTEAVARLKSMNKSAINQYNRRQDKKNKRLKFGHRLIATHTNLERDEQKRAEKKAKERLQALKANDEEAYIKLLDQTKDTRITHLLRQTNAFLDSLTRAVKDQQKYTKEMIDSHIKEASEEVDDLSMVPKMKDEEYDDDDDNSNVDYYNVAHRIKEDIKKQPSILVGGTLKDYQIKGLQWMVSLFNNHLNGILADEMGLGKTIQTISLLTYLYEMKNIRGPYLVIVPLSTLSNWSSEFAKWAPTLRTISFKGSPNERKAKQAKIRAGEFDVVLTTFEYIIKERALLSKVKWVHMIIDEGHRMKNAQSKLSLTLNTHYHADYRLILTGTPLQNNLPELWALLNFVLPKIFNSVKSFDEWFNTPFANTGGQDKIELSEEETLLVIRRLHKVLRPFLLRRLKKDVEKELPDKVEKVVKCKMSALQQIMYQQMLKYRRLFIGDQNNKKMVGLRGFNNQIMQLKKICNHPFVFEEVEDQINPTRETNDDIWRVAGKFELLDRILPKLKATGHRVLIFFQMTQIMDIMEDFLRYINIKYLRLDGHTKSDERSELLRLFNAPDSEYLCFILSTRAGGLGLNLQTADTVIIFDTDWNPHQDLQAQDRAHRIGQKNEVRILRLITTNSVEEVILERAYKKLDIDGKVIQAGKFDNKSTSEEQEALLRSLLDAEEERRKKRESGVEEEEELKDSEINEILARNDEEMAVLTRMDEDRSKKEEELGVKSRLLEKSELPDIYSRDIGAELKREESESAAVYNGRGARERKTATYNDNMSEEQWLRQFEVSDDEKNDKQARKQRTKKEDKSEAIDGNGEIKGENIDADNDGPRINNISAEDRADTDLAMNDDDFLSKKRKAGRPRGRPKKVKLEGSENSEPPALESSPVTGDNSPSEDFMDIPKPRTAGKTSVKSARTSTRGRGRGRGRGRGRGRGRGRPPKARNGLDYVRTPAAATSPIDIREKVAKQALDLYHFALNYENEAGRKLSDIFLSKPSKALYPDYYMIIKYPVAFDNINTHIETLAYNSLKETLQDFHLIFSNARIYNTEGSVVYEDSLELEKVVTKKYCEIMGDNSQLDFTEFDEQYGTRPLVLPPVVTSSVAESFTDEADSSMTEASV
Protein B1 has a Km of 80.5 µM.
